From patent US11883434B2, “Extracellular vesicles and methods of using” (NUtech Ventures, priority 2017, dated 2024)
Read-outs that look alike come from different tables or passages of the source.

Legend:
Format in all cases: cell-based
[1] = test system: human colon carcinoma Caco-2 cells; set-up: exosome uptake: dose or concentration left out as unconfirmed
Description: (§1) Caco-2 cells and IEC-6 cells were seeded at a density of 20,000 and 7000 cells/well, respectively, in 96-well plates, and allowed to adhere for 48 h, when cells were 75% confluent. The exosomes were labeled with the fluorophore, FM 4-64 (Molecular Probes). One microliter of a stock solution of FM 4-64 (5.9 mmol/L) was added to 1 mL of exosome suspension and incubated for 15 min at 37° C., and excess FM 4-64 was removed by ultracentrifugation at 120,000 3 g at 4° C. for 90 min. Transport studies were conducted using FM4-64-labeled exosomes using 3-110 mg of exosomal protein/well (Caco-2 cells) or 27-652 mg of exosomal protein/well (IEC-6 cells) and incubating cells for various periods of time to assess saturation kinetics; blanks were created using solvent. Assays were calibrated by quantifying the fluorescence of a known mass of exosomes labeled with FM 4-64. Exosome uptake was analyzed by measuring the cell fluorescence at 515 (excitation) and 640 nm (emission) using a Biotek FLx800 plate reader (BioTek Instru-ments). Fluorescence readings were corrected for cell autofluorescence by subtracting signals measured in cells incubated with exosome-depleted media. Transport kinetics was modeled using the Michaelis-Menten equation and nonlinear regression; modeling was conducted using GraphPad Prism 6.0 (GraphPad Software). In Caco-2 cells, exosome uptake was linear for up to 120 min if transport was measured using nonsaturating substrate concentrations (FIG. 33A): y=0.0012x+0.014 (r2=0.97; P<0.05). In IEC-6 cells exosome uptake was linear for only up to 60 min if transport was measured using nonsaturating substrate concentrations (FIG. 33B): y=0.0033x+0.033 (r2=0.75; P<0.05). Subsequent transport studies were conducted using incubation times of 8 hours for Caco-2 cells (FIG. 34B). Transport of milk exosome uptake was also studied in human umbilical vein endothelial cells (HUVECs) human small intestinal cells (FHs cells).
In both mammalian cells, the uptake of bovine milk exosomes was mediated by saturable transport mechanisms. Transport kinetics was modeled using the Michaelis-Menten equation. Exosome uptake was analyzed by measuring the cell fluorescence at 515 (excitation) and 640 nm (emission) using a Biotek FLx800 plate reader (BioTek Instruments) as previously described above. […] When the incubation temperature was decreased from 37° C. to 4° C., the transport rate decreased from 100%+56% to 54%+13% using a substrate concentration of 55.5 μg exosomal protein/200 μL in Caco-2 cells (P<0.05; n=3). Likewise, when the incubation temperature was decreased from 37° C. to 4° C., the transport rate decreased from 100%+11% to 44%+25% using a substrate concentration of 153 μg exosomal protein/200 μL in IEC-6 cells (P<0.05; n=3). Subsequent transport studies were conducted using substrate concentrations of 55 μg/200 mL and 153 μg/200 mL in Caco-2 cells and IEC-6 cells, respectively. […] (N=3; p<0.05). […] FIGS. 37A and 37B show saturation kinetics of milk exosome uptake in human small intestinal cells (FHs cells).
To remove surface protein from milk exosomes, the exosomes were subjected to various proteases, including trypsin, proteinase K, AspN, GluC, ArgC. […] Following protease treatment, the exosomes were subject to ultracentrifugation. The supernatant containing the enzyme cleaved surface peptides were identified using LC-MS/MS using LC/MS-MS and Mascot, and glycoproteins were identified using SwissProt. One way Anova and Bonferroni's Multiple comparison was used to test for statistical significance. The pellet containing the exosomes with its surface proteins removed was resuspended in 1×PBS and used for the transport studies shown in FIGS. 40-43.
The uptake of bovine milk exosomes into human and rat intestinal cells depended on surface proteins in both exosomes and cells. Exosomes were treated with proteases as described above and depicted in FIG. 39. […]

[2] = test system: rat primary small intestinal IEC-6 cells; experiment: Uptake of FM4-64-labeled milk exosomes into IEC-6 cells; conditions: exosomes treated with 0.105 mMol/L trypsin for 30 mins
Description: as §1, with “Transport studies were conducted using FM4-64-labeled exosomes using 3-110 mg of exosomal protein/well (Caco-2 cells) or 27-652 mg of exosomal protein/well (IEC-6 cells) and incubating cells for various periods of time to assess saturation kinetics; blanks were created using solvent.” left out, “Transport kinetics was modeled using the Michaelis-Menten equation and nonlinear regression; modeling was conducted using GraphPad Prism 6.0 (GraphPad Software).” left out, “Subsequent transport studies were conducted using incubation times of 8 hours for Caco-2 cells (FIG. 34B). Transport of milk exosome uptake was also studied in human umbilical vein endothelial cells (HUVECs) human small intestinal cells (FHs cells).” left out

[3] = test system: human small intestinal cells (FHs cells); experiment: Uptake of milk exosomes into FH cells (protease, glycosidase, lectin, sonication)
[4] = test system: human umbilical vein endothelial cells (HUVEC); experiment: Uptake of fluorophore-labeled milk exosomes into HUVECs; conditions: exosomal surface proteins removed with proteinase K, HUVEC

B1: trypsin: Serine protease cleaving at lysine or arginine; applied to exosomes or cells (protein, UniProt P00761 9-231, looked up)
Trypsin: IVGGYTCAANSIPYQVSLNSGSHFCGGSLINSQWVVSAAHCYKSRIQVRLGEHNIDVLEGNEQFINAAKIITHPNFNGNTLDNDIMLIKLSSPATLNSRVATVSLPRSCAAAGTECLISGWGNTKSSGSSYPSLLQCLKAPVLSDSSCKSSYPGQITGNMICVGFLEGGKDSCQGDSGGPVVCNGQLQGIVSWGYGCAQKNKPGVYTKVCNYVNWIQQTIAAN
- effect on exosome uptake in Caco-2 cells [1]: significant decrease in exosome transport
- transport rates (Vmax) ([1]; exosomes treated with the labelled protease, intestinal transport): 40±0.6 arbitrary units
- exosome uptake [2]: 82%±8%

B2: PNA: Lectin binding Galβ1-3GalNAcα1-Ser/Thr (protein, UniProt P02872 24-273, looked up)
Galactose-binding lectin: AETVSFNFNSFSEGNPAINFQGDVTVLSNGNIQLTNLNKVNSVGRVLYAMPVRIWSSATGNVASFLTSFSFEMKDIKDYDPADGIIFFIAPEDTQIPAGSIGGGTLGVSDTKGAGHFVGVEFDTYSNSEYNDPPTDHVGIDVNSVDSVKTVPWNSVSGAVVKVTVIYDSSTKTLSVAVTNDNGDITTIAQVVDLKAKLPERVKFGFSASGSLGGRQIHLIRSWSFTSTLITTTRRSIDNNEKKIMNMASA
- effect on exosome uptake in FH cells ([3]; FH cells treated with the labelled agent): decreases the uptake
- effect on exosome uptake in FH cells ([3]; exosomes treated with the labelled agent): decreases the uptake

B3: Arg-C: Cysteine protease cleaving at arginine and lysine (protein, UniProt P09870 51-181; P09870 191-526, looked up)
Clostripain light chain: NKNQKVTIMYYCDADNNLEGSLLNDIEEMKTGYKDSPNLNLIALVDRSPRYSSDEKVLGEDFSDTRLYKIEHNKANRLDGKNEFPEISTTSKYEANMGDPEVLKKFIDYCKSNYEADKYVLIMANHGGGAR
Clostripain heavy chain: AICWDDSNLDKNGEADCLYMGEISDHLTEKQSVDLLAFDACLMGTAEVAYQYRPGNGGFSADTLVASSPVVWGPGFKYDKIFDRIKAGGGTNNEDDLTLGGKEQNFDPATITNEQLGALFVEEQRDSTHANGRYDQHLSFYDLKKAESVKRAIDNLAVNLSNENKKSEIEKLRGSGIHTDLMHYFDEYSEGEWVEYPYFDVYDLCEKINKSENFSSKTKDLASNAMNKLNEMIVYSFGDPSNNFKEGKNGLSIFLPNGDKKYSTYYTSTKIPHWTMQSWYNSIDTVKYGLNPYGKLSWCKDGQDPEINKVGNWFELLDSWFDKTNDVTGGVNHYQW
- effect on exosome uptake in Caco-2 cells [1]: significant decrease in exosome transport

B4: proteinase K: Non-specific protease used to remove surface proteins from exosomes or cells (protein, UniProt P06873 106-384, looked up)
Proteinase K: AAQTNAPWGLARISSTSPGTSTYYYDESAGQGSCVYVIDTGIEASHPEFEGRAQMVKTYYYSSRDGNGHGTHCAGTVGSRTYGVAKKTQLFGVKVLDDNGSGQYSTIIAGMDFVASDKNNRNCPKGVVASLSLGGGYSSSVNSAAARLQSSGVMVAVAAGNNNADARNYSPASEPSVCTVGASDRYDRRSSFSNYGSVLDIFGPGTSILSTWIGGSTRSISGTSMATPHVAGLAAYLMTLGKTTAASACRYIADTANKGDLSNIPFGTVNLLAYNNYQA
- exosome uptake ([1]; CaCo2 cells treated with proteinase K): 18%±16%
- exosome uptake ([1]; exosomes treated with proteinase K): 32%±25%
- decrease of exosome uptake compared with controls ([1]; removal of exosome and cell surface proteins, inhibition of endocytosis/vesicle trafficking, or of glycoprotein binding): 61-85%
- exosome uptake [4]: 50 % of controls
